From publication PMC9855357, “Different Forms of Disorder in NMDA-Sensitive Glutamate Receptor Cytoplasmic Domains Are Associated with Differences in Condensate Formation” (Biomolecules, 2022)

Target: T1, Full-length PSD-95 (post synaptic density protein of 95 kDa) (Rattus norvegicus, UniProt P31016 1-724)
T1 construct: PSD-95, Rattus norvegicus, full length
Assay: co-sedimentation; ternary mixture 1:1:1 of PSD-95, CC-PBM and CTD2A or CTD2B, 20 µM each, 20 mM tris-HCl, 150 mM NaCl, pH 7.4, 25 °C for 5 min, 13,200 x g for 1 min; supernatant and pellet on SDS-PAGE, Coomassie
Details: both partners purified

T1 sequence (P31016 whole entry): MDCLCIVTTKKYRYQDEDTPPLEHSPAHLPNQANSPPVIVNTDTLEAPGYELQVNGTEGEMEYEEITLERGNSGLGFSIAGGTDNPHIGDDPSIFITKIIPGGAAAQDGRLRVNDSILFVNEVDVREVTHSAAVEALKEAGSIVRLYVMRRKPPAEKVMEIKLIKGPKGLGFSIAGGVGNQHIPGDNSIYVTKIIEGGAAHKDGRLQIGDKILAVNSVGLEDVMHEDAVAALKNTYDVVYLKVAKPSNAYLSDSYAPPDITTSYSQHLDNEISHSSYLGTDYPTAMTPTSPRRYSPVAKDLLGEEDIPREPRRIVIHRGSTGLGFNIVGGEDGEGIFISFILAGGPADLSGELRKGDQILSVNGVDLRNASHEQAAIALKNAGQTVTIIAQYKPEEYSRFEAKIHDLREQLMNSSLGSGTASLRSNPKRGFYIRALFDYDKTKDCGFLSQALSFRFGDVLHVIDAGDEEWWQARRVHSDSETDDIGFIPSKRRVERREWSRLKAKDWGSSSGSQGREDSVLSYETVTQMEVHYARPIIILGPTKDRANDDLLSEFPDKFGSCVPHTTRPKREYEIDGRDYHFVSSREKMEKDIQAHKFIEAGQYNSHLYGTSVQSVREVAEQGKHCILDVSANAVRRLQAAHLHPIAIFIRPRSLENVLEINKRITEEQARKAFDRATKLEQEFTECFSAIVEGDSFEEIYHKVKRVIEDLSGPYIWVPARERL

binding result: binds
B1: C-terminal domain 2 (CTD2) of GluN2B (residues 1259–1482) (domain or fragment, Rattus norvegicus, UniProt Q00960 1259-1482, looked up)
chain: SLQELDQPAAPVAVTSNASSTKYPQSPTNSKAQKKNRNKLRRQHSYDTFVDLQKEEAALAPRSVSLKDKGRFMDGSPYAHMFEMPAGESSFANKSSVPTAGHHHNNPGSGYMLSKSLYPDRVTQNPFIPTFGDDQCLLHGSKSYFFRQPTVAGASKTRPDFRALVTNKPVVVTLHGAVPGRFQKDICIGNQSNPCVPNNKNPRAFNGSSNGHVYEKLSSIESDV
notes: GluN2B subunit of the NMDA receptor, Rattus norvegicus, C-terminal domain 2, residues 1259-1482; Expressed from pPROEX HTB; the His tag was removed with TEV protease; also called CTD2B; GluN2B CTD2; not shown: His6, N-terminal, cleaved
